For assay [1], the target named is T1, human LAG-3 (huLAG-3), full length, expressed on the cell surface (human, UniProt P18627 23-525).
T1 construct: also called 293FF-LAG-3
T1 sequence: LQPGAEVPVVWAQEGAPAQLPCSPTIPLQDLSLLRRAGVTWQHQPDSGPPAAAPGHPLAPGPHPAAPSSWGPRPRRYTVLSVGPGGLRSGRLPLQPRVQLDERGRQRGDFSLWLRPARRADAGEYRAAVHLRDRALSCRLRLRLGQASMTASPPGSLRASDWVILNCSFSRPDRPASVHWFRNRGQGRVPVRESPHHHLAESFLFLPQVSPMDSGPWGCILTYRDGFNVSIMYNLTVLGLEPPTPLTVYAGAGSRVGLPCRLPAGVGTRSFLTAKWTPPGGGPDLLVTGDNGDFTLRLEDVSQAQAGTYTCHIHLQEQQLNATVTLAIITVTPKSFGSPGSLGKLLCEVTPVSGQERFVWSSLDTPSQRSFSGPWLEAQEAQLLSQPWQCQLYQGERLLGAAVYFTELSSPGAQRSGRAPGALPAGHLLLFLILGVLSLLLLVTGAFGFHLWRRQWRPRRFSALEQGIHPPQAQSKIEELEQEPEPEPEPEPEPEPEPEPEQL
The assay is described as follows: FACS on HEK293T cells with mouse/human LAG-3 hybrid constructs, bivalent IgG; bin = human domain bound.

Assay [2] concerns the target T2, LAG-3 overexpressed on Jurkat/NFAT-RE reporter cells (Promega) (UniProt P18627 23-525).
T2 sequence (looked up): T1 sequence
The assay is described as follows: cell-based or functional assay.

Assay [3] has as its target T1, human LAG-3 (huLAG-3), full length, ….
Assay [4] shares this target.
Assay [5] has the same target. The source holds these as a separate data set.

Residue numbers refer to the chain shown, from its start. Like-named read-outs stand apart in the source and are kept apart here.

B1: bivalent LAG-3 IgG with MF7515 variable domains (antibody, V domains shown)
VH: QVQLVQSGAEVKKPGASVKVSCKASGYTFTSYGISWVRQAPGQGLEWMGWISAYSGNTNYAQKLQGRVTMTTDTSTSTAYMELRSLRSDDTAVYYCARRPGPALGDLDSWGQGTLVTVSS
VL: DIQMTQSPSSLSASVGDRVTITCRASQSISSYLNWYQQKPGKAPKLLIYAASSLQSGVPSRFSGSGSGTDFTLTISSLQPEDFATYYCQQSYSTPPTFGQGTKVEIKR
notes: Bivalent monospecific IgG; copies: 2 + 2
Consider B1, for which the binding result in assay [1] is on record as “binds”.

B2: bivalent LAG-3 IgG with MF7096 variable domains (antibody, V domains shown)
VH: QVQLQESGPGLVRPSETLSLTCTVSGGSISSYSWSWIRQPPGKGLEWIGYIDYSGSTNYNPSLKSRVTISVDTSKTQFSLKLSSVSAADTAVYYCAKDLLYKWNYVEGFDIWGQGTTVTVSS
VL: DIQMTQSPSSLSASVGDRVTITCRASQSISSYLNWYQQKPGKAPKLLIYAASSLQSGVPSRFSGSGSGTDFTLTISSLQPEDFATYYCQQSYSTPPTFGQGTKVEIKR
As for B2, the “LAG-3 blockade reporter assay (Jurkat LAG-3 reporter cells with Raji MHCII cells), activity as bivalent IgG, AUC” value (“LAG-3 blockade reporter assay” below) in assay [2] was 35.7 % of control.

B3: bivalent LAG-3 IgG with MF7097 variable domains (antibody, V domains shown)
VH: B2 VH with R13K, S56T, Y59F, T117M
VL: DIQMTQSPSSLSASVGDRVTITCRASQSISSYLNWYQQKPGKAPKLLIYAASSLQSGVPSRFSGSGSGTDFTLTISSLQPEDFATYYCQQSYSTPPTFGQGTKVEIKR
As to B3, the “LAG-3 blockade reporter assay” value in assay [2] was 21.4 % of control.

B4: bivalent LAG-3 IgG with MF7167 variable domains (antibody, V domains shown)
VH: EVQLVESGGGLVQPGGSLRLSCAASGFTFSSYAMNWVRQAPGKGLEWVSTISGSGVSTYYADSVKGRFTISRDNSKNTLYLQMNTLRAEDTAVYYCAKDRGYDYSGSYHNWFDPWGQGTLVTVSS
VL: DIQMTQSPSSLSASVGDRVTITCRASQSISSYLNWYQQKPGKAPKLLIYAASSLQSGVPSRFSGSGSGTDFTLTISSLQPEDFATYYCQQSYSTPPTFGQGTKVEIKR
For the molecule B4, in assay [2], the “LAG-3 blockade reporter assay” value was -1.33 % of control.

B5: bivalent LAG-3 IgG with MF7165 variable domains (antibody, V domains shown)
VH: QVQLVQSGAEVRKPGASVKVSCKVSGYTLTELSIHWVRQAPGKGLEWMGAFDPEDGETIYAQKFQGRVTMTEDTSTDTAYMELSSLRSEDTAVYFCATGGTYYYGSGSYYTLDYWGQGTLVTVSS
VL: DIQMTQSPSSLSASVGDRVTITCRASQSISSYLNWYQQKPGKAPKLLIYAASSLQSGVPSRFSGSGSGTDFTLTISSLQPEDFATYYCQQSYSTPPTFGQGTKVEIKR
notes: as for B1
Take B5: the binding result in assay [1] is on record as “binds”.

B6: bivalent LAG-3 IgG with MF7137 variable domains (antibody, V domains shown)
VH: QVQLVQSGAEVKRPGASVKVSCKVSGYTLTELSMHWVRQAPGKGLEWMGGSDPEHGETVDAQKFQGRVTMTEDTSTDTAYMELSSLRSEDTAVYYCTTGGTYYYGSGSYYTLDFWGQGTLVTVSS
VL: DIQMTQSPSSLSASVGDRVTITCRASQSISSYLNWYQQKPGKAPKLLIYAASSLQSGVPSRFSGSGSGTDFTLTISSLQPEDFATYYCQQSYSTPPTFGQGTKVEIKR
B6: the “LAG-3 blockade reporter assay” value in assay [2] is 51.2 % of control.

B7: H4sH15482P* (antibody, V domains shown)
VH: QVQLVESGGGVVQPGRSLRLSCVASGFTFSSYGMHWVRQAPGKGLEWVAIIWYDGSNKYYADSVKGRFTISRDNSKNTQYLQMNSLRAEDTAVYYCASVATSGDFDYYGMDVWGQGTTVTVSS
VL: EIVLTQSPATLSLSPGERTTLSCRASQRISTYLAWYQQKPGQAPRLLIYDASKRATGIPARFSGSGSGTGFTLTISSLEPEDFAVYYCQQRSNWPLTFGGGTKVEIKR
For B7, the “EC50 (read off the curve)” value in assay [3] was around 0.1 µg/mL.

B8: bivalent LAG-3 IgG with MF7106 variable domains (antibody, V domains shown)
VH: QVQLVQSGAEVKKPGSSVKVSCKASGGTFSKYVVSWVRQAPGQGFDWMGGIIPMFGTANYAQMFQGRVTITADKSTSTVNMELSSLRSEDTAVYYCVRDKAVAGLYYFDSWGQGTLVTVSS
VL: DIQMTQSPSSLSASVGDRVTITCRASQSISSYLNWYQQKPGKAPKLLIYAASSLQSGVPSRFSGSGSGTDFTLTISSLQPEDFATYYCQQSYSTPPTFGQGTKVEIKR
In the case of B8, the “LAG-3 blockade reporter assay” value in assay [2] is 16.3 % of control.

B9: MG7106 (monovalent) (bispecific antibody)
VH 1: B8 VH
VH 2: not shown
light: not shown
Take B9: in assay [4], the midpoint of the response, the EC50, lay at 26.5 µg/mL.

B10: MG7144 (monovalent) (bispecific antibody, V domains shown)
VH 1: QVQLVQSGAEVRKPGSSVMVSCKASGGTFSTYAINWLRQAPGQGLEWMGGIIPIFGTPYYGQRFQGRVTITADKSTNTVFMELSSLRSEDTAIYYCARDRDSGGLYYFDSWGQGTLVTVSS
VH 2: not shown
VL: not shown
B10 had an EC50 in assay [4] of 10.2 µg/mL.

B11: bivalent LAG-3 IgG with MF7118 variable domains (antibody, V domains shown)
VH: EVQLVESGGGLVQPGGSLRLSCAASGFTFSSYAMSWVRQAPGKGLEWVSSISGGGVSTFYADSVKGRFTISRDNSKNTLYLQMNSLRAEDTAVYYCAIVPAAATPSGTYYWIFDLWGRGTLVTVSS
VL: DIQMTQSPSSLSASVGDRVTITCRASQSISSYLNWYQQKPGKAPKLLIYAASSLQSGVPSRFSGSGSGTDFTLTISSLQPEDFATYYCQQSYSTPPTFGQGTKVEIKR
On to B11, for which, in assay [2], the “LAG-3 blockade reporter assay” value was 2.04 % of control.

B12: bivalent LAG-3 IgG with MF7134 variable domains (antibody, V domains shown)
VH: EVQLVQSGSELKKPGASVKVSCKASGYTFTTNALNWVRQAPGQGLEWMGWINTHTGNPTYAQGFIGRFVFSLDTSVSTAYLQIRSLKAEDTAVYYCAREPNWGVYFDYWGQGTLVTVSS
VL: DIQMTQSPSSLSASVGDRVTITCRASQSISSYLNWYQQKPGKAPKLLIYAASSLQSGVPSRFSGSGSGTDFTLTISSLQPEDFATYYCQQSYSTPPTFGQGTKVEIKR
Turning to B12, in assay [2], the “LAG-3 blockade reporter assay” value was 34.3 % of control.

B13: bivalent LAG-3 IgG with MF7146 variable domains (antibody, V domains shown)
VH: EVQLVQSGAEVKKPGSSVKVSCKASGGTFNNYFITWVRQAPGQGLEWMGGIIPSFGTGNYAQKFQGRVAITADKSTNTAYMELSSLRSEDTAIYYCVRDREVGAIYYFDYWGQGTMVTVSS
VL: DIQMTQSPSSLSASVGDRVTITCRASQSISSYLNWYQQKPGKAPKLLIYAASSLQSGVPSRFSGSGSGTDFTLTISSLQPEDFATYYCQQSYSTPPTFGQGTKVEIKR
notes: as for B1
For the molecule B13, in assay [1], the binding result is recorded as “binds”.

B14: bivalent LAG-3 IgG with MF7111 variable domains (antibody, V domains shown)
VH: QVQLQESGPGLVKPSETLSLTCTVSDDSISDYYWSWIRQPPGKGLEWIGYIYYSGNTKYNPSLKNRVTISVDTSKSQFSLKLTSVTAADTAVYYCARIPLTGEFDYWAQGTLVTVSS
VL: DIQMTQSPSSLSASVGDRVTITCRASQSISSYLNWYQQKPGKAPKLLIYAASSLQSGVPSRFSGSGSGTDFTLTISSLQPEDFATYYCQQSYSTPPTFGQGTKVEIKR
As for B14, in assay [2], the “LAG-3 blockade reporter assay” value is 51.2 % of control.

B15: MG7137 (monovalent) (bispecific antibody)
VH 1: B6 VH
VH 2: not shown
light: not shown
The molecule B15 had an EC50 in assay [4] of 1.68 µg/mL.

B16: MG7524 (monovalent) (bispecific antibody, V domains shown)
VH 1: QVQLVQSGAEVKKPGASVKVSCKASGYTFTSYGISWVRQAPGQGLEWMGWISAYSGNTNYAQKLQGRVTMTTDTSTSTAYMELRSLRSDDTAVYYCARGSILAAQMWGDIWGQGTLVTVSS
VH 2: not shown
VL: not shown
Consider B16, for which it took 4.2 µg/mL to reach a half-maximal effect in assay [4] (EC50).

B17: bivalent LAG-3 IgG with MF7185 variable domains (antibody, V domains shown)
VH: QVQLVQSGAEVKKPGSSVKVSCKTSGGTFSNYAFSWVRQAPGQGLEWMGGIIPIFGSTNYAQSFQGRVTITADKSTSTAYMELSSLRSEDTAVYYCARDREMGTLYFFDQWGQGTTVTVSS
VL: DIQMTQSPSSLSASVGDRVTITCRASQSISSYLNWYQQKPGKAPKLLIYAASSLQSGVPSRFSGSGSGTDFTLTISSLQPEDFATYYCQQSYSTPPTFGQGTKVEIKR
Consider B17, for which the “LAG-3 blockade reporter assay” value in assay [2] is 20.9 % of control.

B18: MG7185 (monovalent) (bispecific antibody, V domains shown)
VH 1: B17 VH
VH 2: not shown
VL: not shown
As to B18, the midpoint of the response in assay [4], the EC50, lay at 4.49 µg/mL.

B19: MG7139 (monovalent) (bispecific antibody, V domains shown)
VH 1: QVQLVQSGAEVKKPGSSVKVSCKASGGTFSNFAFSWVRQAPGQGLEWMGGIIPMFDTAKYAQKFQGRVTIIADKSTNTAYMDLNSLRSEDTAVYYCVRDRAIGTLYYFDYWGQGTLVTVSS
VH 2: not shown
VL: not shown
Molecule B19 gave a concentration for a half-maximal effect (EC50) in assay [4] of 5.71 µg/mL. This EC50 and that of the molecule before are within 1.5-fold of each other.

B20: bivalent LAG-3 IgG with MF7100 variable domains (antibody, V domains shown)
VH: EVQLVESGGGVVQPGRSLRLSCAASGFTFSSYDTHWVRQAPGKGLEWVAVISYDGSNKYYADSVKGRFTISRDNSKNTLYLQMNSLRAEDTAMYYCARERGWDVFDIWGQGTLVTVSS
VL: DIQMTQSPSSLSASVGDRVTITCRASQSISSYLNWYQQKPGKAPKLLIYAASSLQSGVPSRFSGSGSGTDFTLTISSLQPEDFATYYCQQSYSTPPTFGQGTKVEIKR
Turning to B20, in assay [2], the “LAG-3 blockade reporter assay” value was 39.8 % of control.

B21: PG7116, bivalent LAG-3 IgG with two MF7116 variable domains (antibody, V domains shown)
VH: EVQLVESGGGVVQPGRSLRLSCAASGFTFSSYGMHWVRQAPGKGLEWVAVISYHGSDKYYADSVKGRFTISRDNSKNTLYLQMNSLRAEDTAVYYCARDGDNWDVFDIWGQGTLVTVSS
VL: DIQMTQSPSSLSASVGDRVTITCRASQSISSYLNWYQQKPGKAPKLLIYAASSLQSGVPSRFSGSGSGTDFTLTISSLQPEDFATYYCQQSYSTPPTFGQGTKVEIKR
notes: Bivalent monospecific IgG
Turning to B21, the “LAG-3 blockade reporter assay” value in assay [2] is 57.1 % of control. In addition, the concentration for a half-maximal effect (EC50 (read off the curve)) in assay [5] was around 0.1 µg/mL.

B22: bivalent LAG-3 IgG with MF7518 variable domains (antibody, V domains shown)
VH: QVQLVQSGAEVKKPGASVKVSCKASGYTFTSYGISWVRQAPGQGLEWMGWISAYSGNTNYAQKLQGRVTMTTDTSTSTAYMELRSLRSDDTAVYYCARDGSGWDDFDYWGQGTLVTVSS
VL: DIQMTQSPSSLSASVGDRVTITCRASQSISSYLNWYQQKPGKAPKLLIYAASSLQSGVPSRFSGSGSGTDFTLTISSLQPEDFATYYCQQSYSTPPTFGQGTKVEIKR
B22: the “LAG-3 blockade reporter assay” value in assay [2] is 64.7 % of control.

B23: MG7133 (monovalent) (bispecific antibody, V domains shown)
VH 1: EVQLVQSGAEVKKPGSSVKVSCKASGGTFSSHAISWVRQVPGQGLEWMGGIIPLFDTAKNAQKFQGRVTITADKSTSTAYMELSSLRSEDTAVYYCARDRETGTLYYFDYWGQGTLVTVSS
VH 2: not shown
VL: not shown
In assay [4], B23 returned a concentration for a half-maximal effect (EC50) of 11.2 µg/mL.

A word on the EC50 (read off the curve): it is the concentration needed to bring the measured effect to its halfway point. Read a high EC50 (read off the curve) as lower potency in that assay. In general, EC50 refers to the concentration that produces a half-maximal response.
